From paper PMC11591356, “Immunomodulatory Effects of the Tobacco Defensin NaD1” (Antibiotics, 2024)
Ends that are not written are not given here.

Key:
PBMCs = test: Cytotoxicity assay, resazurin method, PBMCs; type: cell-based, human; settings: for Cell viability: PBMCs, 24 h, resazurin
Text: Peripheral blood mononuclear cells (PBMCs) from healthy donors were purchased from American Type Culture Collection (ATCC PCS-800-011). Primary monocytes were isolated from PBMCs by adherence to the plastic surface. For that, PBMCs were thawed, resuspended in RPMI-1640 culture medium (Corning, Corning, NY, USA) without serum at a concentration of 2 × 10^6 cells/mL, seeded into the wells of a 24-well plate and placed in a humidified CO2-intubator (CellXpert C170i, Eppendorf, Hamburg, Germany) for 1 h. After that, non-adherent cells were removed from the wells and attached monocytes were thoroughly washed with PBS and cultured in a CO2-intubator in complete RPMI-1640 containing 10% human serum (HS Type AB, Capricorn Scientific, Ebsdorfergrund, Germany) and 1×antibiotic-antimycotic (1×AA) solution (Sigma, St. Louis, MO, USA).
The cytotoxic effects of the tobacco defensin NaD1 towards PBMCs or Caco-2 cells were investigated in 96-well plates using the resazurin method as previously described. In brief, 4 × 10^5 per well Caco-2 cells not in a monolayer as well as Caco-2 cells in a monolayer in DMEM/F12 (1:1) medium with 10% FBS or 2 × 10^6 PBMCs per well in RPMI-1640 also with 10% FBS were incubated with serial dilutions of NaD1 at final concentrations from 0.39 to 50 μM or from 2.1 to 180 μM for 24 h. After that, resazurin (Sigma, St. Louis, MO, USA) was added at a final concentration of 70 µM and the plates were incubated overnight (16–18 h). Untreated cells and cells treated by non-ionogenic detergent Triton X-100 were used as negative and positive controls, respectively. […] The cell viability was estimated by resorufin fluorescence registered at […] via the following equation: cell viability (%) = (Fsample/Fcontrol) × 100%. Experiment was carried out twice in duplicate.

[1] = tested on: human dermal fibroblast cells (AHDF); set-up: method as in PMID 28179997; settings: read-out: IC50, MTT cell viability assay; cited from earlier work

In the case of “NaD1: Recombinant tobacco floral defensin NaD1 (UNIPROT Q8GTM0), obtained by heterologous expression in E. coli; FITC-labeled in the permeability assay (RECKTESNTFPGICITKPPCRKACISEKFTDGHCSKILRRCLCTKPC; cysteine pairing not given here; also: FITC label; UniProt Q8GTM0 26-72, looked up)”, the Cell viability (PBMCs; peptide 50 µM, twice in duplicate) is reported as “approximately 90%”, the Cell viability (PBMCs; peptide 180 μM) is reported as “more than 50%” and the “Cytotoxic effect against the tested immune and epithelial cells” value (PBMCs; peptide 12.5 µM, PBMCs and Caco-2) is reported as “did not exhibit a cytotoxic effect”. For the same substance, the IC50 [1] was roughly 10 µM.
